Experimental data: patent publication US9005937B2, “Dual cofactor specific ribitol dehydrogenase and use thereof” (Konkuk University Industrial Cooperation Corp., priority 2011, dated 2015)

How the values were obtained:
[1] = Production of L-ribulose from ribitol with cell bodies of recombinant strains expressing the variants; type: cell-based, E. coli; conditions: whole cells; 20 mM Tris-HCl buffer pH 9.5; 25° C.; 6 hours; HPLC
Description: The following experiments were performed in order to produce L-ribulose using a ribitol dehydrogenase variant having double coenzyme specificity. The variants prepared by using the method of Example 5-3 were expressed using the method of Example 2; the cell bodies were only collected by centrifuging (8000×g for 10 minutes) the recombinant strain culture solution; and then the cell bodies were washed with distilled water twice. The final Cell OD was measured and the same amount of cells was used for a production experiment. The ribitol and each of recombinant enzyme variants were subjected to an enzyme reaction in 20 mM of Tris-HCl buffer (pH 9.5) at a temperature of 25° C. for 6 hours.

[2] = Optimum pH on dehydrogenation activity of the ribitol dehydrogenase; type: biochemical; conditions: 20 mM Tris-HCl buffer; NAD(H) and ribitol; absorbance at 340 nm
Source text: Physicochemical properties of the ribitol dehydrogenase isolated in Example 4 were investigated using ribitol as a substrate.

[3] = substrate: NC(=O)c1ccc[n+]([C@@H]2O[C@H](COP(=O)(O)OP(=O)(O)OC[C@H]3O[C@@H](n4cnc5c(N)ncnc54)[C@H](OP(=O)(O)O)[C@@H]3O)[C@@H](O)[C@H]2O)c1; assay: purified protein, by the assay type; conditions: ribitol, wild-type, pH 9.0
[4] = coenzyme NADP(H)
Description: (§1) The optimum pH on dehydrogenation activity of the ribitol dehydrogenase was measured using 20 mM of Tris-HCl buffer. The enzyme activity was determined by monitoring the change per minute in absorbance at 340 nm while the sample was reacted in the presence of NAD(H) and ribitol.

[5] = coenzyme NAD(H)
Description: as §1

[6] = other: NADP(H) 0.1 to 2 mM, 20 mM Tris-HCl, 340 nm

B1: Zymomonas mobilis ribitol dehydrogenase, wild-type, SEQ ID NO: 4 (Zymomonas mobilis subsp. mobilis ZM4 = ATCC 31821) (protein)
chain: MIPRPDHGEKSYRGSGKLQGRKALITGGDSGIGRATAIAYAREGADIVINYLPQEEPDAREVVALLQGEGHKVFALPGDLRNENFCVQLVQEASKRLGGLDILANIAGHQHYNESILTLSTADFDDTLKTNVYAMFWLCKEALKIMPAGSAIVNTSSTQGYRPSAILLDYATSKAAIANFTRALAIQLAPRGIRVNAVAPGPFWTPLQVSGGQPASAYSQFGANTPVKRPGQPVEIAPVYVFLACAENSYVTGEVYGVTGCAQIF
In the case of B1, the “L-ribulose produced, concentration” value [1] is reported as 0.80 g/L, the “optimum pH” value [2] is reported as 9.5 and the Km ([3]; other: NADP 0.01 to 3 mM) is reported as 260 ± 20 µM. The kcat ([3]; other: NADP 0.01 to 3 mM) was 2.79 s⁻¹, the kcat/Km ([3]; other: NADP 0.01 to 3 mM) was 10800 M⁻¹ s⁻¹ and the Km [3, 6] was 260 µM. For the same molecule, the kcat [3, 6] was 2.79 s⁻¹, the “Relative activity (%), NADP(H)” value [4] was 42.9% and the “Relative activity (%), NAD(H)” value [5] was 100%.
